B1: RUN and FYVE domain-containing protein 1, residues 639 to 698; numbered along this chain, Q96T51 (parent)
chain: WLKDDEATHCRQCEKEFSISRRKHHCRNCGHIFCNTCSSNELALPSYPKPVRVCDSCHTL

Variants of: B1
Experiment: abundance fitness (aPCA) (normalised: wild type 0, dead -1); higher = more abundant; growth selection in yeast, the domain comes from the species named
Settings: Homo sapiens

Abundance fitness: each site, then its substitutions
I19: S -0.048; V -0.102; K 0.073; F -0.136; R -0.065; C -1.15; D -0.014; Q 0.094; A -0.177; P -0.034; Y -0.341; T 0.095; H -0.036; N -0.001; E 0.228; L -0.038; W -0.846; M -0.006
H24: V -0.166; R -0.378; E 0.051; M -0.148; D -0.251; I -0.443; A -0.266; N -0.256; W -0.282; F -0.351; C -0.135; Q -0.293; P -0.97; G -0.515; L -0.458; T -0.146; S -0.284
H9: A 0.136; S -0.115; Q -0.248; I -0.216; N -0.046; P -0.822; W -0.532; K -0.09; R -0.23; F -0.135; G -0.22; E -0.418; T -0.221; Y -0.357; M -0.108
C10: V -0.815; K -0.766; R -0.843; L -0.74; W -0.519; H -0.665; I -0.636; Y -0.72; N -0.837; G -0.849; Q -0.678; E -0.687; M -1.02; T -0.711; F -0.776; A -0.765
C26: A -0.694; D -0.794
Q12: S -0.412; W -0.69; K -0.449; R -0.303; L -0.298; A -0.171; P -1.17; Y -0.279; C 0.039; T -0.565; H -0.27; F -0.458; E -0.225; D -0.051; M -0.27; N -0.106; G 0.208; I -0.068
A7: T 0.014; L -0.234; H -0.176; I -0.008; K -0.384; Y -0.092; E 0.017; C -0.082; R -0.031; M -0.302; Q 0.04; D -0.039; P -0.114; F -0.028; V -0.108; G -0.09; N -0.204; W -0.154; S 0.092
C13: E -0.738; R -0.802; W -0.82; T -0.83; P -0.984; M -0.943; F -0.707; Q -0.806; L -0.913; H -0.975; G -0.684; S -0.899; D -0.874; V -0.951; N -0.712; K -1.07; I -1.01
R22: V 0; P -0.303; S -0.32; H -0.854; W -0.18; N -0.24; A -0.102; E 0.014; Q -0.1; M 0.109; D -0.141; L -0.098; T -0.066; C -0.494; Y -0.356; I -0.1
S18: G -0.049; N -0.12; V -0.247; C 0.007; M -0.23; P -0.398; I -0.144; W -0.322; Y -0.501; T 0.05; F -0.352; L -0.423; A -0.33; H -0.408; Q -0.256; D 0.06; K -0.087
E6: R -0.336; S -0.165; V -0.254; Y -0.191; W -0.388; T -0.014; P -0.236; Q -0.203
K15: N -0.058; P -0.999; S -0.098; H -0.074; A -0.527; E -0.009; Q -0.082; L -0.188; D -0.233; V -0.359; C -0.196; W -0.449; M -0.373; R -0.053; Y -0.191; G -0.088; T -0.154; I -0.143
T8: H 0.025; S -0.016; R -0.009; I 0.047; K -0.026; V -0.269; P -0.187; A -0.204; E -0.085; Y -0.349; Q 0.008; G -0.062; M 0.022; C -0.325; L -0.009; D -0.087
E16: D -0.123; C -0.29; W -0.638; H -0.089; V -0.282; R -0.412; L -0.314; S -0.179; K -0.387; Q -0.329; G -0.18; P -0.195; T -0.339; N -0.029; A -0.286; Y -0.349; F -0.245
E14: K -0.439; F -0.204; M -0.212; D -0.083; A -0.08; L -0.377; R -0.431; P -0.856; V -0.41; Q -0.113; G 0.006; C -0.243; W -0.24; I -0.167; S -0.168; N -0.459; H -0.127
R11: M 0.226; T 0.044; E 0.079; P -0.03; G 0.127; A 0.227; S 0.203; L 0.161; D 0.057; H 0.044; N -0.093; Y 0.121; K 0.229; W 0.224; V -0.155; Q 0.05; F -0.023
R21: M -0.239; Q -0.069; I -0.227; P -0.503; T 0.13; F -0.265; Y -0.801; V -0.054; K -0.184; H -0.434; W -1.06; C -1.14; D -1.25; N -0.711; S -0.355; G -0.278; A -0.04; L -0.195
K23: C -0.176; M -0.137; F -0.362; T -0.204; G -0.034; Q -0.261; L -0.433; E -0.165; S -0.189; P -0.494; V -0.257; R -0.069; N -0.491; Y -0.575; H -0.326; I -0.207; W -0.243; D -0.315
S20: H -0.108; V -0.031; K -0.018; P -0.061; Q 0.138; T 0.069; A 0.068; L -0.147; W 0.005; F -0.009; D 0.13; Y -0.195; I 0.028; E 0.197; C -0.369
H25: V 0.044; I -0.13; F -0.045; R 0.151; E -0.02; C -0.169; N -0.311; K 0.012; M 0.051; P -0.065; W 0.128; Q 0.169; Y 0.097; S 0.07; A 0.121; D -0.176; T -0.118
F17: N -1.02; V -0.662; D -0.467; L -0.218; E -0.68; K -0.676; R -0.677; Y -0.769; W -0.381; G -0.793; M -0.571; P -0.624; H -0.65; I -0.397; Q -0.765; A -0.927; S -0.709; T -0.574

Reference: the Human Domainome abundance scans (Beltran et al. 2025)
